Experimental data: paper PMC6770517, “Insight into the Antifungal Mechanism of Action of Human RNase N-terminus Derived Peptides” (International Journal of Molecular Sciences, 2019)

Experiments:
C. albicans cells [1] = experiment: Minimal agglutination activity (MAC); assay type: cell-based, Candida albicans (ATCC 90028); settings: protein tested up to 20 μM
Procedure: C. albicans cells were grown at 30 °C to an OD592 of 1.0, diluted 10 times, centrifuged at 5000× g for 2 min, and resuspended in 1× PBS. An aliquot of 100 μL of the cellular suspension was treated with increasing peptide concentrations (from 0.01 to 20 μM) and incubated at 30 °C for 1 h. The aggregation behavior was observed by visual inspection, and the agglutinating activity is expressed as the minimum agglutinating concentration of the sample tested, as previously described. Images were taken using a 50× stereoscope microscope.

C. albicans cells [2] = experiment: Cell binding assay (supernatant SDS-PAGE); design: species or system Candida albicans (ATCC 90028); settings: 1 μM, PBS, 30 °C, 15, 30 and 60 min; unbound fraction by SDS-PAGE
Procedure: (§1) C. albicans was cultured overnight in Sabouraud Dextrose broth at 30 °C, sub-cultured the next day and grown to an optical density of 0.4 at 592 nm (mid log-phase). Cells were washed twice in PBS and adjusted to 2 × 10^6 cells/mL. Cells and yeast β-D-Glucan (0.4 mg/mL) (Sigma) were respectively incubated in 100 μL of PBS at 30 °C with proteins and peptides at 1 μM final concentration during different periods of time up to 1 h. Following, the samples were centrifuged at 12,000× g. The supernatant samples were concentrated, and the presence of the proteins and peptides was checked by 15–18% SDS-PAGE and Coomassie Blue staining. Reference protein controls were treated following the same protocol in the absence of cells.

[3] = β-D-Glucan binding assay (supernatant SDS-PAGE); design: species or system yeast; settings: β-D-Glucan 0.4 mg/mL, 1 μM, PBS, 30 °C, up to 1 h; unbound fraction by SDS-PAGE
Procedure: as §1

B1: hRNase3: human ribonuclease 3 of the RNaseA superfamily, parental protein of RN3 (protein, UniProt P12724 28-160, looked up)
Eosinophil cationic protein: RPPQFTRAQWFAIQHISLNPPRCTIAMRAINNYRWRCKNQNTFLRTTFANVVNVCGNQSIRCPHNRTLNNCHRSRFRVPLLHCDLINPGAQNISNCTYADRPGRRFYVVACDNRDPRDSPRYPVVPVHLDTTI
With B1 as the molecule, how does the “agglutination of C. albicans by the parental hRNase” value (C. albicans cells [1]) read?
The value was “able to agglutinate C. albicans”.

And the “binding to C. albicans cell wall” value (C. albicans cells [2])?
Its value is “able to bind to the C. albicans cell wall”.

And the “binding to main cell wall component (β-D-Glucan)” value [3]?
The value was “positive binding”.
